Results on 19 molecules are retold here after PMC6533264 (Scientific Reports, 2019).

The labels stand for the following.
B1: 4R34.1.19, human IgG1 (antibody, V domains shown)
VH: EVQLLESGGGLVQPGGSLRLSCAASGFTFSRHAMAWVRQAPGKGLEWVSAITSSGRSIYYADSVKGRFTISRDNSKNTLYLQMNSLRAEDTAVYYCARVHRAFDYWGQGTLVTVSS
VL: QSVLTQPPSASGTPGQRVTISCSGSPLFPDSGSFNWYQQLPGTAPKLLIYADSHRPSGVPDRFSGSKSGTSASLAISGLRSEDEADYYCGTWDYSLSGYVLGGGTKLTVL
B2: 4R34, human IgG1 (antibody, V domains shown)
VH: EVQLLESGGGLVQPGGSLRLSCAASGFTFSNYAMSWVRQAPGKGLEWVSAISSGGGNIYYADSVKGRFTISRDNSKNTLYLQMNSLRAEDTAVYYCARVHRAFDYWGQGTLVTVSS
VL: QSVLTQPPSASGTPGQRVTISCSGSSSNIGSNTFNWYQQLPGTAPKLLIYADSHRPSGVPDRFSGSKSGTSASLAISGLRSEDEADYYCGTWDYSLSGYVLGGGTKLTVL
B3: 4R34.2, human IgG1 (antibody, V domains shown)
VH: EVQLLESGGGLVQPGGSLRLSCAASGFTFSNYAMSWVRQAPGKGLEWVSAITSSGANIYYADSVKGRFTISRDNSKNTLYLQMNSLRAEDTAVYYCARVHRAFDYWGQGTLVTVSS
VL: QSVLTQPPSASGTPGQRVTISCSGSSSNIGSNTFNWYQQLPGTAPKLLIYADSHRPSGVPDRFSGSKSGTSASLAISGLRSEDEADYYCGTWDYSLRGYVLGGGTKLTVL
B4: 4R34.1.21, human IgG1 (antibody, V domains shown)
VH: EVQLLESGGGLVQPGGSLRLSCAASGFTFSNYAMSWVRQAPGKGLEWVSAITSSGRSIYYADSVKGRFTISRDNSKNTLYLQMNSLRAEDTAVYYCARVHRAFDYWGQGTLVTVSS
VL: QSVLTQPPSASGTPGQRVTISCSGSAALDLSPSFNWYQQLPGTAPKLLIYADSHRPSGVPDRFSGSKSGTSASLAISGLRSEDEADYYCGTWDYSLSGYVLGGGTKLTVL
B5: 4R34.1.18, human IgG1 (antibody, V domains shown)
VH: EVQLLESGGGLVQPGGSLRLSCAASGFTFSNYAMSWVRQAPGKGLEWVSAITSSGRSIYYADSVKGRFTISRDNSKNTLYLQMNSLRAEDTAVYYCARVHRAFDYWGQGTLVTVSS
VL: QSVLTQPPSASGTPGQRVTISCSGSLLRGENLQFNWYQQLPGTAPKLLIYADSHRPSGVPDRFSGSKSGTSASLAISGLRSEDEADYYCGTWDYSLRGYVLGGGTKLTVL
B6: 4R34.29, human IgG1 (antibody, V domains shown)
VH: EVQLLESGGGLVQPGGSLRLSCAASGFTFSNYAMSWVRQAPGKGLEWVSAITAGGGSIYYADSVKGRFTISRDNSKNTLYLQMNSLRAEDTAVYYCARVHRAFDYWGQGTLVTVSS
VL: QSVLTQPPSASGTPGQRVTISCSGSSSNIGSNTFNWYQQLPGTAPKLLIYADSHRPSGVPDRFSGSKSGTSASLAISGLRSEDEADYYCGTWDYSLSGYVLGGGTKLTVL
B7: 4R34.1.11, human IgG1 (antibody, V domains shown)
VH: EVQLLESGGGLVQPGGSLRLSCAASGFTFSNYAMSWVRQAPGKGLEWVSAITSSGRSIYYADSVKGRFTISRDNSKNTLYLQMNSLRAEDTAVYYCARVHRAFDYWGQGTLVTVSS
VL: QSVLTQPPSASGTPGQRVTISCSGSSANSRTDGFNWYQQLPGTAPKLLIYADSHRPSGVPDRFSGSKSGTSASLAISGLRSEDEADYYCGTWDYSLRGYVLGGGTKLTVL
B8: 4R34.19, human IgG1 (antibody, V domains shown)
VH: EVQLLESGGGLVQPGGSLRLSCAASGFTFSNYAMSWVRQAPGKGLEWVSAITSSGGNIYYADSVKGRFTISRDNSKNTLYLQMNSLRAEDTAVYYCARVHRAFDYWGQGTLVTVSS
VL: QSVLTQPPSASGTPGQRVTISCSGSSSNIGSNTFNWYQQLPGTAPKLLIYADSHRPSGVPDRFSGSKSGTSASLAISGLRSEDEADYYCGYWDYSLSGYVLGGGTKLTVL
B9: 4R34.1.13, human IgG1 (antibody, V domains shown)
VH: EVQLLESGGGLVQPGGSLRLSCAASGFTFSNYAMSWVRQAPGKGLEWVSAITSSGRSIYYADSVKGRFTISRDNSKNTLYLQMNSLRAEDTAVYYCARVHRAFDYWGQGTLVTVSS
VL: QSVLTQPPSASGTPGQRVTISCSGSAQFGSRDNFNWYQQLPGTAPKLLIYADSHRPSGVPDRFSGSKSGTSASLAISGLRSEDEADYYCGTWDYSLRGYVLGGGTKLTVL
B10: 4R34.1, human IgG1 (antibody, V domains shown)
VH: EVQLLESGGGLVQPGGSLRLSCAASGFTFSNYAMSWVRQAPGKGLEWVSAITSSGRSIYYADSVKGRFTISRDNSKNTLYLQMNSLRAEDTAVYYCARVHRAFDYWGQGTLVTVSS
VL: QSVLTQPPSASGTPGQRVTISCSGSSSNIGSNTFNWYQQLPGTAPKLLIYADSHRPSGVPDRFSGSKSGTSASLAISGLRSEDEADYYCGTWDYSLSGYVLGGGTKLTVL
B11: 4R34.1.17, human IgG1 (antibody, V domains shown)
VH: EVQLLESGGGLVQPGGSLRLSCAASGFTFSNYAMSWVRQAPGKGLEWVSAITSSGRSIYYADSVKGRFTISRDNSKNTLYLQMNSLRAEDTAVYYCARVHRAFDYWGQGTLVTVSS
VL: QSVLTQPPSASGTPGQRVTISCSGSTKQMHNYQFNWYQQLPGTAPKLLIYADSHRPSGVPDRFSGSKSGTSASLAISGLRSEDEADYYCGTWDYSLSGYVLGGGTKLTVL

T2 sequence (P24394 26-232): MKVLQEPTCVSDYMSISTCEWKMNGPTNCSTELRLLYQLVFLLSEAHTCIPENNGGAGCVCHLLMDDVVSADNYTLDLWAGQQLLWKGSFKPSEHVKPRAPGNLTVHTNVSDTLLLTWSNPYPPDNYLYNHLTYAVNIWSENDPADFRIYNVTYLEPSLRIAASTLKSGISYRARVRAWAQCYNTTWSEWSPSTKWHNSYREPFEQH

The first experiment deals with Dupilumab analogue. Briefly: ELISA. As to conditions: dupilumab analogue 100 pM; read off a plot. (An ELISA detects its analyte on a solid surface through an enzyme-linked reagent.)
Regarding “extracellular domain of human IL-4Rα (residues 26–232), C-terminal 6× His (from UniProt P24394) S95A”, the percent of parent came out at 100%.

Consider “extracellular domain of human IL-4Rα (residues 26–232), C-terminal 6× His (from UniProt P24394) Y208A”, for which the percent of parent is 100%.

On to “extracellular domain of human IL-4Rα (residues 26–232), C-terminal 6× His (from UniProt P24394) D97A”, for which the percent of parent stood at 73%.

As for “extracellular domain of human IL-4Rα (residues 26–232), C-terminal 6× His (from UniProt P24394) Y38A”, the percent of parent was determined as 120%.

Regarding “extracellular domain of human IL-4Rα (residues 26–232), C-terminal 6× His (from UniProt P24394) D92A”, the percent of parent amounted to 100%.

As for “extracellular domain of human IL-4Rα (residues 26–232), C-terminal 6× His (from UniProt P24394) L68A”, the percent of parent worked out at 97%.

As to “extracellular domain of human IL-4Rα (residues 26–232), C-terminal 6× His (from UniProt P24394) L67A”, the percent of parent is 100%.

Consider “extracellular domain of human IL-4Rα (residues 26–232), C-terminal 6× His (from UniProt P24394) V93A”, for which the percent of parent came to 76%.

The target of the next experiment is T1, insulin (Homo sapiens (assumed), UniProt P01308).
T1 construct: insulin B chain; insulin A chain; Polyreactivity antigen; source: bought: Sigma, I9278
T1 sequence (P01308 whole entry, looked up): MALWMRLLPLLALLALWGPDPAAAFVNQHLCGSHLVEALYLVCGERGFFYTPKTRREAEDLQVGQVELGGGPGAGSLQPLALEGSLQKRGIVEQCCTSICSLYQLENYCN
In words: ELISA; non-specificity ELISA: hemocyanin (150 ng/well) and insulin (150 ng/well) coated (also dsDNA and cardiolipin). As to conditions: both partners purified.
For B1, the binding result was “no binding”.

Another experiment concerns the target T2, extracellular domain of human IL-4Rα (residues 26–232), C-terminal 6× His (human, UniProt P24394).
T2 construct: human interleukin-4 receptor alpha subunit, extracellular domain, residues 26-232; Subcloned into the pSecTag2A vector; N-glycosylated (~45 kDa, ~26 kDa after PNGase F); also called wild-type IL-4Rα; soluble IL-4Rα; source: HEK293F, transiently transfected, purified (Ni-NTA); not shown: His6, C-terminal, kept
Briefly: BLI; OctetRED96; Ab (1 μg/mL) captured on anti-human IgG Fc capture (AHC) biosensors at low density (0.6 to 0.8 nm), soluble monomeric IL-4Rα as analyte; 25 °C, PBS pH 7.4, 0.02% Tween 20; association 300 s, dissociation 600-900 s; 1:1 binding model. As to conditions: both partners purified. A general note: BLI is a label-free optical method that tracks binding on a fibre tip over time.
What is called Kd is the equilibrium constant for the complex coming apart. The koff is the rate constant with which the complex falls apart. A low value points to slow dissociation. As a reminder, the kon is a measure of how fast the partners come together. A lower kon goes with slower complex formation. For the molecule B2, binding was put at a Kd of 1.04 nM, the koff is 0.00361 s⁻¹ and the on-rate (kon) stood at 3.47e+06 M⁻¹ s⁻¹.

On to B3, for which the affinity, expressed as Kd, was 0.853 nM; the koff amounted to 0.00401 s⁻¹; the on-rate (kon) was 4.7e+06 M⁻¹ s⁻¹.

As for B4, the Kd worked out at 0.228 nM, the off-rate (koff) was 0.00106 s⁻¹ and the kon was determined as 4.63e+06 M⁻¹ s⁻¹.

The molecule B5 came in with a Kd of 0.29 nM, a koff of 0.00175 s⁻¹ and a kon of 6.05e+06 M⁻¹ s⁻¹.

As for B6, binding was put at a Kd of 0.716 nM, the koff turned out to be 0.00371 s⁻¹ and the kon was determined as 5.18e+06 M⁻¹ s⁻¹.

In turn, B7 gave a Kd of 0.21 nM, an off-rate (koff) of 0.000968 s⁻¹ and a kon of 4.62e+06 M⁻¹ s⁻¹.

In turn, B8 showed a Kd of 0.532 nM, a koff of 0.00243 s⁻¹ and an on-rate (kon) of 4.58e+06 M⁻¹ s⁻¹.

For B9, the Kd turned out to be 0.208 nM, the koff is 0.00107 s⁻¹ and the kon stood at 5.12e+06 M⁻¹ s⁻¹.

Consider B10, for which the Kd came to 0.401 nM, the koff worked out at 0.00172 s⁻¹ and the on-rate (kon) is 4.28e+06 M⁻¹ s⁻¹.

Take B11: the Kd amounted to 0.179 nM, the off-rate (koff) was 0.000879 s⁻¹ and the on-rate constant (kon) was determined as 4.92e+06 M⁻¹ s⁻¹.

B1 showed a Kd of 0.178 nM, an off-rate (koff) of 0.000877 s⁻¹ and an association rate constant (kon) of 4.93e+06 M⁻¹ s⁻¹.
